Consider one substance from patent US20220119517A1.

Test [1] deals with human Claudin18.2 (CLDN18.2), full length, on cells (human). The test can be described thus: FACS on NUGC4 cells.
For test [2], the target named is human Claudin18.1 (CLDN18.1), full length, on cells (human) (UniProt P56856). In words: FACS on CHO-K1-CLDN18.1 cells.
In test [3] the target is human Claudin18.2 (CLDN18.2), full length, on cells (human). In words: cell-based or functional assay.

Take “human IgG1, kappa isotype control antibody”: in test [1], the MFI (CLDN18.2) was found to be 93 MFI. The substance further returned an MFI (CLDN18.1) in test [2] of 219 MFI. In test [3], this substance showed an ADCC cytotoxicity by LDH method, PBMC effectors, Max (%) of 52%; an in-vitro ADCC activity, Jurkat-CD16A/NF luciferase reporter, EC50 of 13.5 nM; an in-vitro ADCC activity, Jurkat-CD16A/NF luciferase reporter, Top of 6190.
